Broadly, the pKd is −log10 of the Kd, conventionally taken in molar units. The term pEC50 denotes the negative decadic logarithm of the EC50, by convention in mol/L. Low readings indicate a high EC50, high ones a low EC50.

Consider 2 substances from publication PMC4073494.

In one assay the target is EED (Homo sapiens) (UniProt O75530). Particulars: cited from earlier work.
For assay [1], the target named is purified full-length EED (AlphaScreen) (UniProt O75530). The assay is described as follows: AlphaScreen or HTRF. In general terms: In Alpha technology, singlet oxygen from a donor bead excites a nearby acceptor bead.

pEC50, pKd: −log10 of the molar value.

purified full-length EED (AlphaScreen), sequence (O75530 whole entry): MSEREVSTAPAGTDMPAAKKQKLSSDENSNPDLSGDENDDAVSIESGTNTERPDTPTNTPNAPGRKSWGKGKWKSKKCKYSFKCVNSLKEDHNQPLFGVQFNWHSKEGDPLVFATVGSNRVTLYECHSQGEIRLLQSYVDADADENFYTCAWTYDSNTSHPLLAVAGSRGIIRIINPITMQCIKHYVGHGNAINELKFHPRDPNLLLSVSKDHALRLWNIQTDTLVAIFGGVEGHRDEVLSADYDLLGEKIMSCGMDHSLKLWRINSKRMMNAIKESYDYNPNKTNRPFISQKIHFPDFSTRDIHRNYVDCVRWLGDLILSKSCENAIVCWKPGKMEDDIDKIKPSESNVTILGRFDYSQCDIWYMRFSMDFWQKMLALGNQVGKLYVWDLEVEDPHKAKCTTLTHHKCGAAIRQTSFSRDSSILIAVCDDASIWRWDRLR
EZH2 39-68, sequence (Q15910 39-68): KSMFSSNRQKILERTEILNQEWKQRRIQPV
EED (Homo sapiens), sequence (O75530 2-441): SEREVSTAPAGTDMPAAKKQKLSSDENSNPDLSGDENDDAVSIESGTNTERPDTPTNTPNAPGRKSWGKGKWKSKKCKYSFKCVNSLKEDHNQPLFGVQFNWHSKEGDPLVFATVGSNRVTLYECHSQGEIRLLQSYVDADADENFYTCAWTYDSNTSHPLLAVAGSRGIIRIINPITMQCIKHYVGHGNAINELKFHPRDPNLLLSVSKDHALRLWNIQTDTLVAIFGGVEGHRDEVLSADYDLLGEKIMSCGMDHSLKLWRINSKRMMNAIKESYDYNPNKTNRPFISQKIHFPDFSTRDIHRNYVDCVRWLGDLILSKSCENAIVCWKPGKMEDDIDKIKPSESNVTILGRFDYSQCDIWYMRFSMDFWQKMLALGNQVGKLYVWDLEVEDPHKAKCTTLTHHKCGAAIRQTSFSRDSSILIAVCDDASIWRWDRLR

With EZH2 39-68 (from UniProt Q15910), the pKd with EED (Homo sapiens) is 6.42.

In assay [1], “unlabeled full-length RING1B (from UniProt Q99496 1-336) (natural protein)” gave a pEC50 of 6.22.
